This note sets out measurements from patent US20210238260A1 (published 2021).

The target in test [1] is T1, Factor VIIIa (FVIIIa), from recombinant FVIII (Kogenate FS; Bayer healthcare) activated with alpha-thrombin (UniProt P00451 20-2351).
T1 sequence (looked up): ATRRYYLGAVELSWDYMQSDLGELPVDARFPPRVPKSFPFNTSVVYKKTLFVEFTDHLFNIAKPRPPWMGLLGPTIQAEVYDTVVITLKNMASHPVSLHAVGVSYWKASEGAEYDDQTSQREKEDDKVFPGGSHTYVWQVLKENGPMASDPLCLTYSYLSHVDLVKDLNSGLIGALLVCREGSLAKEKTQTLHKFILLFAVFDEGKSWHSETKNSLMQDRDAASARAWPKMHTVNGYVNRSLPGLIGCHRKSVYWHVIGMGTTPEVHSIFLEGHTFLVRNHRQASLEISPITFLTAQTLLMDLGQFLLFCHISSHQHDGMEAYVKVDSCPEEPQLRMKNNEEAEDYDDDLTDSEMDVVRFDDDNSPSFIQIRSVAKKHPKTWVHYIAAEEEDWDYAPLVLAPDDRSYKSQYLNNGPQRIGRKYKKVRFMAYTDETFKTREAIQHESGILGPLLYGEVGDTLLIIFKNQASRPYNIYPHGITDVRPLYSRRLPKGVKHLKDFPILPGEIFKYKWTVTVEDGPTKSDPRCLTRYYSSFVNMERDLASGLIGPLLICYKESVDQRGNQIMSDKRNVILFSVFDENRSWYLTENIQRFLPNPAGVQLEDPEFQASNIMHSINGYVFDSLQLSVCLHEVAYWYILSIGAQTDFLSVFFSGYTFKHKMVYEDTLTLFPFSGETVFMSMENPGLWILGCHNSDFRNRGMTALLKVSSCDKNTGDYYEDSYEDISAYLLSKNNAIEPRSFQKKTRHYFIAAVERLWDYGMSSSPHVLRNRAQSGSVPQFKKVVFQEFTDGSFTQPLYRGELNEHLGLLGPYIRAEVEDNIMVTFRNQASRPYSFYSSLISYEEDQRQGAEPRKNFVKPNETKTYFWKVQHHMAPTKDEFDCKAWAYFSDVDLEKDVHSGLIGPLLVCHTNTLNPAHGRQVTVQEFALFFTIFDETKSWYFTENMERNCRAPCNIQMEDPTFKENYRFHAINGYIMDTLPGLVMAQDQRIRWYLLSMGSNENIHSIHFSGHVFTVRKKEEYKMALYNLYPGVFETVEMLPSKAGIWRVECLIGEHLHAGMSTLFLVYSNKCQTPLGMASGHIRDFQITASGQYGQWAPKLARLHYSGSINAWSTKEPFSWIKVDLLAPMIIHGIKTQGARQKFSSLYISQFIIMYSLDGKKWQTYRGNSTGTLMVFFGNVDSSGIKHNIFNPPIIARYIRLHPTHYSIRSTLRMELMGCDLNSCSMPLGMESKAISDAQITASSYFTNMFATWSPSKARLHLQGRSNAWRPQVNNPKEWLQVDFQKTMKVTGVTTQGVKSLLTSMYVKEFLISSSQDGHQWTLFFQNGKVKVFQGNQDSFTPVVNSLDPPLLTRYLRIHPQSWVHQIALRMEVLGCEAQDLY
The test can be described thus: apparent functional KD (KD-app): FX activation rate vs FVIIIa titration, fluorogenic Xase assay with PC/PS vesicles and Ca2+.
From the text: (§1) The activity of alpha-thrombin was then quenched by the addition of a highly specific thrombin inhibitor, hirudin, prior to initiating the assay.

Test [2] addresses T1, Factor VIIIa (FVIIIa), from recombinant …. Description: ratio of KD-app of Catalyst Biosciences WT FIXa to KD-app of the variant, same Xase assay.
From the text: as §1

B1: FIXa variant D104N/K106S/I251S/R318Y/R338E/R403E/E410N (enzyme)
light: YNSGKLEEFVQGNLERECMEEKCSFEEAREVFENTERTTEFWKQYVDGDQCESNPCLNGGSCKDDINSYECWCPFGFEGKNCELDVTCNIKNGRCEQFCKNSANNSVVCSCTEGYRLAENQKSCEPAVPFPCGRVSVSQTSKLTR
heavy: VVGGEDAKPGQFPWQVVLNGKVDAFCGGSIVNEKWIVTAAHCVETGVKITVVAGEHNIEETEHTEQKRNVSRIIPHHNYNAAINKYNHDIALLELDEPLVLNSYVTPICIADKEYTNIFLKFGSGYVSGWGRVFHKGYSALVLQYLRVPLVDRATCLESTKFTIYNNMFCAGFHEGGRDSCQGDSGGPHVTEVEGTSFLTGIISWGEECAMKGKYGIYTKVSEYVNWIKNKTKLT
For B1, the Kd in test [1] was 0.0547 µM. In test [2], the KD-WT/KD-mut is 1.7 fold.

B2: FIXa variant I251S/R318Y/R338E/R403E/E410N (enzyme)
light: YNSGKLEEFVQGNLERECMEEKCSFEEAREVFENTERTTEFWKQYVDGDQCESNPCLNGGSCKDDINSYECWCPFGFEGKNCELDVTCNIKNGRCEQFCKNSADNKVVCSCTEGYRLAENQKSCEPAVPFPCGRVSVSQTSKLTR
heavy: VVGGEDAKPGQFPWQVVLNGKVDAFCGGSIVNEKWIVTAAHCVETGVKITVVAGEHNIEETEHTEQKRNVSRIIPHHNYNAAINKYNHDIALLELDEPLVLNSYVTPICIADKEYTNIFLKFGSGYVSGWGRVFHKGYSALVLQYLRVPLVDRATCLESTKFTIYNNMFCAGFHEGGRDSCQGDSGGPHVTEVEGTSFLTGIISWGEECAMKGKYGIYTKVSEYVNWIKNKTKLT
notes: also called I86S/R150Y/R170E/R233E/E240N
As for B2, the Kd in test [1] worked out at 0.0627 µM. In addition, the KD-WT/KD-mut in test [2] came out at 1.5 fold.

B3: FIXa variant D104N/K106S/K247N/N249S/R318Y/R338E/R403E/E410N (enzyme)
light: YNSGKLEEFVQGNLERECMEEKCSFEEAREVFENTERTTEFWKQYVDGDQCESNPCLNGGSCKDDINSYECWCPFGFEGKNCELDVTCNIKNGRCEQFCKNSANNSVVCSCTEGYRLAENQKSCEPAVPFPCGRVSVSQTSKLTR
heavy: VVGGEDAKPGQFPWQVVLNGKVDAFCGGSIVNEKWIVTAAHCVETGVKITVVAGEHNIEETEHTEQNRSVIRIIPHHNYNAAINKYNHDIALLELDEPLVLNSYVTPICIADKEYTNIFLKFGSGYVSGWGRVFHKGYSALVLQYLRVPLVDRATCLESTKFTIYNNMFCAGFHEGGRDSCQGDSGGPHVTEVEGTSFLTGIISWGEECAMKGKYGIYTKVSEYVNWIKNKTKLT
As to B3, the Kd in test [1] is 0.0874 µM. The KD-WT/KD-mut in test [2] amounted to 1.1 fold.

B4: FIXa variant K247N/N249S/N260S/R318Y/R338E/R403E/E410N (enzyme)
light: YNSGKLEEFVQGNLERECMEEKCSFEEAREVFENTERTTEFWKQYVDGDQCESNPCLNGGSCKDDINSYECWCPFGFEGKNCELDVTCNIKNGRCEQFCKNSADNKVVCSCTEGYRLAENQKSCEPAVPFPCGRVSVSQTSKLTR
heavy: VVGGEDAKPGQFPWQVVLNGKVDAFCGGSIVNEKWIVTAAHCVETGVKITVVAGEHNIEETEHTEQNRSVIRIIPHHNYSAAINKYNHDIALLELDEPLVLNSYVTPICIADKEYTNIFLKFGSGYVSGWGRVFHKGYSALVLQYLRVPLVDRATCLESTKFTIYNNMFCAGFHEGGRDSCQGDSGGPHVTEVEGTSFLTGIISWGEECAMKGKYGIYTKVSEYVNWIKNKTKLT
notes: also called K82N/N84S/N95S/R150Y/R170E/R233E/E240N
B4: in test [1], the Kd amounted to 0.065 µM. Moreover, in test [2], the KD-WT/KD-mut is 1.5 fold.

B5: FIXa variant R318Y/R338E/E410S (enzyme)
light: YNSGKLEEFVQGNLERECMEEKCSFEEAREVFENTERTTEFWKQYVDGDQCESNPCLNGGSCKDDINSYECWCPFGFEGKNCELDVTCNIKNGRCEQFCKNSADNKVVCSCTEGYRLAENQKSCEPAVPFPCGRVSVSQTSKLTR
heavy: VVGGEDAKPGQFPWQVVLNGKVDAFCGGSIVNEKWIVTAAHCVETGVKITVVAGEHNIEETEHTEQKRNVIRIIPHHNYNAAINKYNHDIALLELDEPLVLNSYVTPICIADKEYTNIFLKFGSGYVSGWGRVFHKGYSALVLQYLRVPLVDRATCLESTKFTIYNNMFCAGFHEGGRDSCQGDSGGPHVTEVEGTSFLTGIISWGEECAMKGKYGIYTKVSRYVNWIKSKTKLT
notes: also called R150Y/R170E/E240S
On to B5, for which, in test [1], the Kd came out at 0.0068 µM. Further, in test [2], the KD-WT/KD-mut is 14.1 fold.

B6: FIXa variant K228N/K247N/N249S (enzyme)
light: YNSGKLEEFVQGNLERECMEEKCSFEEAREVFENTERTTEFWKQYVDGDQCESNPCLNGGSCKDDINSYECWCPFGFEGKNCELDVTCNIKNGRCEQFCKNSADNKVVCSCTEGYRLAENQKSCEPAVPFPCGRVSVSQTSKLTR
heavy: VVGGEDAKPGQFPWQVVLNGKVDAFCGGSIVNEKWIVTAAHCVETGVNITVVAGEHNIEETEHTEQNRSVIRIIPHHNYNAAINKYNHDIALLELDEPLVLNSYVTPICIADKEYTNIFLKFGSGYVSGWGRVFHKGRSALVLQYLRVPLVDRATCLRSTKFTIYNNMFCAGFHEGGRDSCQGDSGGPHVTEVEGTSFLTGIISWGEECAMKGKYGIYTKVSRYVNWIKEKTKLT
notes: also called K63N/K82N/N84S
Regarding B6, the Kd in test [1] was determined as 0.113 µM. Further, the KD-WT/KD-mut in test [2] was 0.8 fold.

B7: FIXa variant K247N/N249S/N260S (enzyme)
light: YNSGKLEEFVQGNLERECMEEKCSFEEAREVFENTERTTEFWKQYVDGDQCESNPCLNGGSCKDDINSYECWCPFGFEGKNCELDVTCNIKNGRCEQFCKNSADNKVVCSCTEGYRLAENQKSCEPAVPFPCGRVSVSQTSKLTR
heavy: VVGGEDAKPGQFPWQVVLNGKVDAFCGGSIVNEKWIVTAAHCVETGVKITVVAGEHNIEETEHTEQNRSVIRIIPHHNYSAAINKYNHDIALLELDEPLVLNSYVTPICIADKEYTNIFLKFGSGYVSGWGRVFHKGRSALVLQYLRVPLVDRATCLRSTKFTIYNNMFCAGFHEGGRDSCQGDSGGPHVTEVEGTSFLTGIISWGEECAMKGKYGIYTKVSRYVNWIKEKTKLT
notes: also called K82N/N84S/N95S
For the molecule B7, in test [1], the Kd came to 0.147 µM. The KD-WT/KD-mut in test [2] stood at 0.6 fold.

B8: FIXa variant K228N/K247N/N249S/R318Y/R338E/R403E/E410N (enzyme)
light: YNSGKLEEFVQGNLERECMEEKCSFEEAREVFENTERTTEFWKQYVDGDQCESNPCLNGGSCKDDINSYECWCPFGFEGKNCELDVTCNIKNGRCEQFCKNSADNKVVCSCTEGYRLAENQKSCEPAVPFPCGRVSVSQTSKLTR
heavy: VVGGEDAKPGQFPWQVVLNGKVDAFCGGSIVNEKWIVTAAHCVETGVNITVVAGEHNIEETEHTEQNRSVIRIIPHHNYNAAINKYNHDIALLELDEPLVLNSYVTPICIADKEYTNIFLKFGSGYVSGWGRVFHKGYSALVLQYLRVPLVDRATCLESTKFTIYNNMFCAGFHEGGRDSCQGDSGGPHVTEVEGTSFLTGIISWGEECAMKGKYGIYTKVSEYVNWIKNKTKLT
notes: also called K63N/K82N/N84S/R150Y/R170E/R233E/E240N
For the molecule B8, the Kd in test [1] was determined as 0.101 µM. The KD-WT/KD-mut in test [2] amounted to 0.9 fold.

B9: FIXa variant I251S/R318Y/R338E/E410N (enzyme)
light: YNSGKLEEFVQGNLERECMEEKCSFEEAREVFENTERTTEFWKQYVDGDQCESNPCLNGGSCKDDINSYECWCPFGFEGKNCELDVTCNIKNGRCEQFCKNSADNKVVCSCTEGYRLAENQKSCEPAVPFPCGRVSVSQTSKLTR
heavy: VVGGEDAKPGQFPWQVVLNGKVDAFCGGSIVNEKWIVTAAHCVETGVKITVVAGEHNIEETEHTEQKRNVSRIIPHHNYNAAINKYNHDIALLELDEPLVLNSYVTPICIADKEYTNIFLKFGSGYVSGWGRVFHKGYSALVLQYLRVPLVDRATCLESTKFTIYNNMFCAGFHEGGRDSCQGDSGGPHVTEVEGTSFLTGIISWGEECAMKGKYGIYTKVSRYVNWIKNKTKLT
notes: also called I86S/R150Y/R170E/E240N; I251S/R318Y/E410N/R338E
With B9, the Kd in test [1] amounted to 0.0057 µM. In test [2], the KD-WT/KD-mut was determined as 16.7 fold.

B10: FIXa variant R318Y/R338E/E410N/T412V (enzyme)
light: YNSGKLEEFVQGNLERECMEEKCSFEEAREVFENTERTTEFWKQYVDGDQCESNPCLNGGSCKDDINSYECWCPFGFEGKNCELDVTCNIKNGRCEQFCKNSADNKVVCSCTEGYRLAENQKSCEPAVPFPCGRVSVSQTSKLTR
heavy: VVGGEDAKPGQFPWQVVLNGKVDAFCGGSIVNEKWIVTAAHCVETGVKITVVAGEHNIEETEHTEQKRNVIRIIPHHNYNAAINKYNHDIALLELDEPLVLNSYVTPICIADKEYTNIFLKFGSGYVSGWGRVFHKGYSALVLQYLRVPLVDRATCLESTKFTIYNNMFCAGFHEGGRDSCQGDSGGPHVTEVEGTSFLTGIISWGEECAMKGKYGIYTKVSRYVNWIKNKVKLT
notes: also called R150Y/R170E/E240N/T242V
For the molecule B10, the Kd in test [1] turned out to be 0.0089 µM. The KD-WT/KD-mut in test [2] was 10.7 fold.
